Values of other authors, collected in patent publication US20240247069A1, “FGFR3 BINDING MOLECULES AND METHODS OF USE THEREOF” (Regeneron Pharmaceuticals, Inc., priority 2023, published 2024).
Read-outs that look alike come from different tables or passages of the source.

Test system: FGFR3
[1] = Table T-3, exemplary FGFR3 D3 binding sequences from cited PCT publications
[2] = literature antibodies, sequences from cited PCT publications

| Molecule | Activity [1] | Activity [2] |
| --- | --- | --- |
| 20B4: anti-FGFR3 domain 3 antibody of WO 2010/002862 A2; VH SEQ ID NO:57, VL SEQ ID NO:58 (antibody, V domains shown) VH: EIQLQQSGPELVKPGASVKVSCKASGYSLTDYNMYWVKQSHGKSLEWIGYIDPYNGGTSYNQKFKGKATLTVDKSSSTAFMHLNSLTSEDSAVYYCARSLGPDFDYWGQGTTLTVSS VL: QIVLTQSPAIMSASPGEKVTMTCSASSSVNYMHWYQQKSGTSPKRWIYDTSKLASGVPARFSGSGSGTSYSLTISSMEAEDTATYYCQQWNSNPLTFGAGTKLELK | Antagonistic | Antagonistic |
| PRQ-001: anti-FGFR3 domain 2 antibody of WO 2006/048877 A2; VH SEQ ID NO:46, VL SEQ ID NO:29 (antibody, V domains shown) VH: QVQLQQSGPGLVKPSQTLSLTCAISGDSVSSNSAAWNWIRQSPGRGLEWLGRTYYRSKWYNDYAVSVKSRITINPDTSKNQFSLQLNSVTPEDTAVYYCARSYYPDFDYWGQGTLVTVSS VL: DIELTQPPSVSVAPGQTARISCSGDALGDKYASWYQQKPGQAPVLVIYDDSDRPSGIPERFSGSNSGNTATLTISGTQAEDEADYYCQSYDGPDLWVFGGGTKLTVLGQ | – | Antagonistic |
| PRQ-002: anti-FGFR3 domain 2 antibody of WO 2006/048877 A2; VH SEQ ID NO:24, VL SEQ ID NO:25 (antibody, V domains shown) VH: QVQLVQSGAEVKKPGASVKVSCKASGYTFTSYYMHWVRQAPGQGLEWMGWINPNSGGTNYAQKFQGRVTMTRDTSISTAYMELSSLRSEDTAVYYCARDFLGYEFDYWGQGTLVTVSS VL: DIELTQPPSVSVAPGQTARISCSGDALGDKYASWYQQKPGQAPVLVIYDDSDRPSGIPERFSGSNSGNTATLTISGTQAEDEADYYCQSYDYSADYVFGGGTKLTVLGQ | – | Antagonistic |
| PRQ-012: anti-FGFR3 domain 2 antibody of WO 2006/048877 A2; VH SEQ ID NO:47, VL SEQ ID NO:27 (antibody, V domains shown) VH: QVQLKESGPALVKPTQTLTLTCTFSGFSLSTSGVGVGWIRQPPGKALEWLALIDWDDDKYYSTSLKTRLTISKDTSKNQVVLTMTNMDPVDTATYYCARYHSWYEMGYYGSTVGYMFDYWGQGTLVTVSS VL: DIELTQPPSVSVAPGQTARISCSGDALGDKYASWYQQKPGQAPVLVIYDDSDRPSGIPERFSGSNSGNTATLTISGTQAEDEADYYCQSYDFDFAVFGGGTKLTVLGQ | – | Antagonistic |
| MS-PRQ-12: anti-FGFR3 Ig-like domain 2 antibody of WO 2002/102972 A2; VH SEQ ID NO:26, VL SEQ ID NO:27 (antibody, V domains shown) VH: QVQLKESGPALVKPQTLTLTCTFSGFSLSTSGVGVGWIRQPPGKALEWLALIDWDDDKYYSTSLKTRLTISKDTSKNQVVLTMTNMDPVDTATYYCARYHSWYEMGYYGSTVGYMFDYWGQGTLVTVSS VL: DIELTQPPSVSVAPGQTARISCSGDALGDKYASWYQQKPGQAPVLVIYDDSDRPSGIPERFSGSNSGNTATLTISGTQAEDEADYYCQSYDFDFAVFGGGTKLTVLGQ | – | Antagonistic |
| PRQ-029: anti-FGFR3 IIIc antibody of WO 2006/048877 A2; VH SEQ ID NO:40, VL SEQ ID NO:49 (antibody, V domains shown) VH: QVQLVQSGAEVKKPGASVKVSCKASGYTFTSYYMHWVRQAPGQGLEWMGWINPNSGGTNYAQKFQGRVTMTRDTSISTAYMELSSLRSEDTAVYYCARTWQYSYFYYLDGGYYFDIWGQGTLVTVSS VL: DIVLTQSPATLSLSPGERATLSCRASQSVSSSYLAWYQQKPGQAPRLLIYGASSRATGVPARFSGSGSGTDFTLTISSLEPEDFATYYCQQTNNAPVTFGQGTKVEIKRT | Antagonistic | Antagonistic |
| MS-Pro-55: anti-FGFR3 Ig-like domain 3 antibody of WO 2002/102972 A2; VH SEQ ID NO:44, VL SEQ ID NO:45 (antibody, V domains shown) VH: QVQLVQSGAEVKKPGASVKVSCKASGYTFTSYYMHWVRQAPGQGLEWMGWINPNSGGTNYAQKFQGRVTMTRDTSISTAYMELSSLRSEDTAVYYCARSMNSTMYWYLRRVLFDHWGQGTLVTVSS VL: DIALTQPASVSGSPGQSITISCTGTSSDVGGYNYVSWYQQHPGKAPKLMIYDVSNRPSGVSNRFSGSKSGNTASLTISGLQAEDEADYYCQSYDMYNYIVFGGGTKLTVLGQ | Antagonistic | Antagonistic |
| PRQ-055: anti-FGFR3 IIIc antibody of WO 2006/048877 A2; VH SEQ ID NO:44, VL SEQ ID NO:45 (antibody, V domains shown) VH: QVQLVQSGAEVKKPGASVKVSCKASGYTFTSYYMHWVRQAPGQGLEWMGWINPNSGGTNYAQKFQGRVTMTRDTSISTAYMELSSLRSEDTAVYYCARSMNSTMYWYLRRVLFDHWGQGTLVTVSS VL: DIALTQPASVSGSPGQSITISCTGTSSDVGGYNYVSWYQQHPGKAPKLMIYDVSNRPSGVSNRFSGSKSGNTASLTISGLQAEDEADYYCQSYDMYNYIVFGGGTKLTVLGQ | Antagonistic | Antagonistic |
| Hu15D8: anti-FGFR3 domain 3 antibody of WO 2010/002862 A2; VH SEQ ID NO:59, VL SEQ ID NO:60 (antibody, V domains shown) VH: EVQLVQSGAEVKKPGESLKISCKGSGYSFTSYNMYWVRQMPGKGLEWMGYIDPYNGGTSYNQKFKGKATLTVDKSISTAYLQWSSLKASDTAMYYCAREGGNYEAWFAYWGQGTLVTVSS VL: DIQLTQSPSSLSASVGDRVTITCSASSSVSYMYWFQQKPGKAPKPLIYLTSYLASGVPSRFSGSGSGTDFTLTISSLQPEDFATYYCQQWSSYPLTFGGGTKVEIK | Antagonistic | Antagonistic |
| 15D8: anti-FGFR3 domain 3 antibody of WO 2010/002862 A2; VH SEQ ID NO:51, VL SEQ ID NO:52 (antibody, V domains shown) VH: EIQLQQSGPELVKPGASVKVSCKASGYAFTSYNMYWVKQSHGKSLEWIGYIDPYNGGTSYNQKFKGKATLTVDKSSSTAYMHLNSLTSEDSAVYYCAREGGNYEAWFAYWGQGTLVTVSA VL: QIVLTQSPALMSASPGEKVTMTCSASSSVSYMYWYQQKPRSSPKPWIYLTSYLASGVPARFSGSGSGTSYSLTISSMEAEDAATYYCQQWSSYPLTFGAGTKLELK | Antagonistic | Antagonistic |
| 2G4: anti-FGFR3 domain 3 antibody of WO 2010/002862 A2; VH SEQ ID NO:55, VL SEQ ID NO:54 (antibody, V domains shown) VH: EIQLQQSGPELVKPGASVKVSCKASGYAFTSYNMYWVKQSHGKSLEWIGYIDPYNGGTRDNQKFKGKATLTVDKSSSTAYMHLNSLTSEDSAVYYCAREGGNYEAWFAYWGQGTLVTVSA VL: QIVLTQSPALMSASPGEKVTMTCSASSSVSYMYWYQQKPRSSPKPWIYLTSNLASGVPARFSGSGSGTSYSLTISSMEAEDAATYYCQQWSSNPLTFGAGTKLELK | Antagonistic | Antagonistic |
| 27H2: anti-FGFR3 domain 3 antibody of WO 2010/002862 A2; VH SEQ ID NO:53, VL SEQ ID NO:54 (antibody, V domains shown) VH: EIQLQQSGPELVKPGASVKVSCKASGYAFTSYNMYWVKQSHGKSLEWIGYIDPYNGGTRYNQKFKGKATMTVDKSSSTAYMHLNSLTSEDSAVYYCAREGGNYEAWFAYWGQGTLVTVSA VL: QIVLTQSPALMSASPGEKVTMTCSASSSVSYMYWYQQKPRSSPKPWIYLTSNLASGVPARFSGSGSGTSYSLTISSMEAEDAATYYCQQWSSNPLTFGAGTKLELK | Antagonistic | Antagonistic |
| 4E7(7D12): anti-FGFR3 domain 3 antibody of WO 2010/002862 A2; VH SEQ ID NO:56, VL SEQ ID NO:54 (antibody, V domains shown) VH: EIQLQQSGPELVKPGASVKVSCKASGYAFTSYNMYWVKQSHGKSLEWIGYIDPYNGGTRYNQKFKGKATLTVDKSSSTAYMHLNSLTSEDSAVYYCAREGGNYEAWFAYWGQGTLVTVSA VL: QIVLTQSPALMSASPGEKVTMTCSASSSVSYMYWYQQKPRSSPKPWIYLTSNLASGVPARFSGSGSGTSYSLTISSMEAEDAATYYCQQWSSNPLTFGAGTKLELK | Antagonistic | Antagonistic |
| MS-Pro-54: anti-FGFR3 Ig-like domain 3 antibody of WO 2002/102972 A2; VH SEQ ID NO:42, VL SEQ ID NO:43 (antibody, V domains shown) VH: QVQLVQSGAEVKKPGASVKVSCKASGYTFTSYYMHWVRQAPGQGLEWMGWINPNSGGTNYAQKFQGRVTMTRDTSISTAYMELSSLRSEDTAVYYCARNMAYTNYQYVNMPHFDYWGQGTLVTVSS VL: DIELTQPPSVSVAPGQTARISCSGDALGDKYASWYQQKPGQAPVLVIYDDSDRPSGIPERFSGSNSGNTATLTISGTQAEDEADYCQSYDYFKLVFGGGTKLTVLGQ | Antagonistic | Antagonistic |
| PRQ-054: anti-FGFR3 IIIc antibody of WO 2006/048877 A2; VH SEQ ID NO:42, VL SEQ ID NO:50 (antibody, V domains shown) VH: QVQLVQSGAEVKKPGASVKVSCKASGYTFTSYYMHWVRQAPGQGLEWMGWINPNSGGTNYAQKFQGRVTMTRDTSISTAYMELSSLRSEDTAVYYCARNMAYTNYQYVNMPHFDYWGQGTLVTVSS VL: DIELTQPPSVSVAPGQTARISCSGDALGDKYASWYQQKPGQAPVLVIYDDSDRPSGIPERFSGSNSGNTATLTISGTQAEDEADYYCQSYDYFKLVFGGGTKLTVLGQ | Antagonistic | Antagonistic |
| PRQ-026: anti-FGFR3 IIIc antibody of WO 2006/048877 A2; VH SEQ ID NO:36, VL SEQ ID NO:37 (antibody, V domains shown) VH: QVQLVQSGAEVKKPGASVKVSCKASGYTFTSYYMHWVRQAPGQGLEWMGWINPNSGGTNYAQKFQGRVTMTRDTSISTAYMELSSLRSEDTAVYYCARGYWYAYFTYINYGYFDNWGQGTLVTVSS VL: DIALTQPASVSGSPGQSITISCTGTSSDVGGYNYVSWYQQHPGKAPKLMIYDVSNRPSGVSNRFSGSKSGNTASLTISGLQAEDEADYYCQSYDNNSDWFGGGTKLTVLGQ | Antagonistic | Antagonistic |
